Test results as given in patent US20220298214A1.

Molecular target: GLP-1 receptor (UniProt P43220)
Assay: cell-based or functional assay

Sequence of GLP-1 receptor (P43220 24-463 limits assumed): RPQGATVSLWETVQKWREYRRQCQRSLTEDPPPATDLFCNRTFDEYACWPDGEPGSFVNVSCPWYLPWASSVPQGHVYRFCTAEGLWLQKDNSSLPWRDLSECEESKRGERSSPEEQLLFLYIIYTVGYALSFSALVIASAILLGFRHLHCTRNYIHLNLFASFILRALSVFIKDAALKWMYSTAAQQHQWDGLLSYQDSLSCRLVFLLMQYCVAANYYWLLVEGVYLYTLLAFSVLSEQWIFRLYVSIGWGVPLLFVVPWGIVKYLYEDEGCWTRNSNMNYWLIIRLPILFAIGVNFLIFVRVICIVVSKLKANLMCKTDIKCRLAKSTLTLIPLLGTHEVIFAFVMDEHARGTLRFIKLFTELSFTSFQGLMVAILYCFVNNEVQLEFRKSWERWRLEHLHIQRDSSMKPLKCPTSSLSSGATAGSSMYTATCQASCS

EC50 value (pM), luciferase reporter gene (CRE-Luc) in HEK293-GLP1R-CRE-Luc cells: 41.2 pM
Substance: Dulaglutide (Fc fusion)
